# Laboratory results from paper PMC2565473, “A Ligand Peptide Motif Selected from a Cancer Patient Is a Receptor-Interacting Site within Human Interleukin-11” (PLoS ONE, 2008).
# Numbering of substitutions follows the chain as printed. Bridges are numbered along the chain shown (N, C = ends). Where no end group is shown, it is not given here.
# T1: GST-IL-11 G115A (human, UniProt P20809 22-199, G115A)
# T1 construct: human interleukin-11, open reading frame in pGEX4T-1, alanine mutant made on the GST-IL-11 plasmid; As m7 with the mutation; also called Gly^115 mutant; source: E. coli BL21, purified from inclusion bodies (solubilized in 6 M guanidine-HCl)
# T1 sequence (looked up): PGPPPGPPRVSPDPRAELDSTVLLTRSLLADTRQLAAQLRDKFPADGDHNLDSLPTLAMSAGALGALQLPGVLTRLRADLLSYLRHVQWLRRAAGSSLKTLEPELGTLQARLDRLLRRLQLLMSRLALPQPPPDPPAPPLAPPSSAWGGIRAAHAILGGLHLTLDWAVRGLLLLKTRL
# T2: GST-IL-11 G116A (human, UniProt P20809 22-199, G116A)
# T2 construct: human interleukin-11, open reading frame in pGEX4T-1, alanine mutant made on the GST-IL-11 plasmid; As m7 with the mutation; also called Gly^116 mutant; source: E. coli BL21, purified from inclusion bodies (solubilized in 6 M guanidine-HCl)
# T2 sequence (looked up): T1 sequence (looked up) with A94G, G95A
# T3: GST-IL-11 S117A (human, UniProt P20809 22-199, S117A)
# T3 construct: human interleukin-11, open reading frame in pGEX4T-1, alanine mutant made on the GST-IL-11 plasmid; As m7 with the mutation; also called Ser^117 mutant; source: E. coli BL21, purified from inclusion bodies (solubilized in 6 M guanidine-HCl)
# T3 sequence (looked up): T1 sequence (looked up) with A94G, S96A
# T4: GST-IL-11 R112A (human, UniProt P20809 22-199, R112A)
# T4 construct: human interleukin-11, open reading frame in pGEX4T-1, alanine mutant made on the GST-IL-11 plasmid; As m7 with the mutation; also called Arg^112 mutant; source: E. coli BL21, purified from inclusion bodies (solubilized in 6 M guanidine-HCl)
# T4 sequence (looked up): T1 sequence (looked up) with R91A, A94G
# B1: IL-11Rα (recombinant, extracellular domain fused to the Fc region of human IgG) (Fc fusion, UniProt Q14626 24-370, looked up)
# chain: SPCPQAWGPPGVQYGQPGRSVKLCCPGVTAGDPVSWFRDGEPKLLQGPDSGLGHELVLAQADSTDEGTYICQTLDGALGGTVTLQLGYPPARPVVSCQAADYENFSCTWSPSQISGLPTRYLTSYRKKTVLGADSQRRSPSTGPWPCPQDPLGAARCVVHGAEFWSQYRINVTEVNPLGASTRLLDVSLQSILRPDPPQGLRVESVPGYPRRLRASWTYPASWPCQPHFLLKFRLQYRPAQHPAWSTVEPAGLEEVITDAVAGLPHAVRVSARDFLDAGTWSTWSPEAWGTPSTGTIPKEIPAWGQLHTQPEVEPQVDSPAPPRPSLQPHPRLLDHRDSVEQVAVLA
# notes: human interleukin-11 receptor alpha, extracellular domain; The methods of the NMR and of the proliferation assay name only 'IL-11Rα' or 'human sIL-11Rα'; also called IL-11 receptor α; sIL-11Rα; source: bought: R&D Systems
# B2: synthetic cyclic peptide CGRRAGGSC (peptide)
# peptide: CGRRAGGSC
# modifications: disulfide 1-9
# notes: peptide selected from a combinatorial phage library in a cancer patient; RRAGGS corresponds to residues 112-117 of human IL-11; also called IL-11-like peptide; source: synthetic peptide, synthesized and cyclized at AnaSpec
# B3: CGARAGGSC phage (Arg^3 to Ala mutant of the … phage) (peptide)
# peptide: CGARAGGSC
# notes: source: phage display, cloned into SfiI-digested fUSE5 vector
# B4: CGRRAAGSC phage (Gly^6 to Ala mutant of the … phage) (peptide)
# peptide: CGRRAAGSC
# notes: as for B3
# Tests used:
# GST-IL-11 R113A (human) = GST-IL-11 R113A (human) (UniProt P20809); test: ELISA; GST fusion proteins coated overnight on 96-well plates at 5 µg/ml, blocked with 3% BSA in PBS; IL-11Rα (1 µg/ml) incubated for 2 h; detected with anti-human Fc HRP-conjugated antibody
# GST-IL-11 G115A = target: T1, GST-IL-11 G115A; test: as above; conditions: both partners purified
# GST-IL-11 G116A = target: T2, GST-IL-11 G116A; test: as above; conditions: both partners purified
# GST-IL-11 S117A = target: T3, GST-IL-11 S117A; test: as above; conditions: both partners purified
# GST-IL-11 R112A = target: T4, GST-IL-11 R112A; test: as above; conditions: both partners purified
# [1] = target: B1; test: NMR titration; 1D-1H and 2D-1H TOCSY/NOESY at 600 MHz; IL-11Rα 6 µM, peptide up to 400 µM (molar excess ∼16-, 33- and 66-fold); 50 mM sodium phosphate, 5 mM sodium azide, 10% D2O; 25°C; conditions: both partners purified
# [2] = target: B1; test: phage binding assay; alanine-scanning phage on immobilized IL-11Rα, done as a1; result given as grade of the ratio binding to IL-11Rα / binding to BSA; in duplicate, repeated at least four times; conditions: one partner purified
binder,measurement,setting,value
B1,% binding inhibition relative to wild-type IL-11,GST-IL-11 R113A (human),86%
same,% binding inhibition relative to wild-type IL-11,GST-IL-11 G115A,71%
same,% binding inhibition relative to wild-type IL-11,GST-IL-11 G116A,29%
same,% binding inhibition relative to wild-type IL-11,GST-IL-11 S117A,86%
same,% binding inhibition relative to wild-type IL-11,GST-IL-11 R112A,43%
B2,binding result,[1],binds
B3,% reduction of binding relative to the … phage,[2],> 70%
B4,% reduction of binding relative to the … phage,[2],> 70%
